T1: SIP2 D1 (Plasmodium falciparum, UniProt C6KSN9 177-235)
T1 sequence: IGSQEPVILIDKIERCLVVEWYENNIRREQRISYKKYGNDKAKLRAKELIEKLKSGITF

T2: HDP1 homeodomain-like (Plasmodium falciparum, UniProt Q8IKH4 2990-3078)
T2 sequence: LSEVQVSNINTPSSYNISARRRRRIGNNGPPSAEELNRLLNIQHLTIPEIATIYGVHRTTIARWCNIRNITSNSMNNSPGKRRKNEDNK


How the values were obtained:
SIP2 D1 = target: T1, SIP2 D1; experiment: gcPBM; about 25 ug protein; PBS, 1% milk, 0.2 mg/ml BSA, salmon testes DNA, 0.03% Triton X-100; conditions: tags: N-terminal GST (pGEX-4T-1), kept; label: surface-attached array probe
HDP1 homeodomain-like = target: T2, HDP1 homeodomain-like; experiment: as above; conditions: tags: N-terminal GST (pGEX-4T-1), kept; chain copies: 2; label: surface-attached array probe

Binder | binding signal (SIP2 D1) | binding signal (HDP1 homeodomain-like)
GTGCAC_site10365 (dsDNA) DNA 1: TTTCAATTTATCAGTGTGCACAAAAATAAAATAAAA DNA 2: TTTTATTTTATTTTTGTGCACACTGATAAATTGAAA | 10.1 ln median PBM intensity, better of two orientations | 11.4 ln median PBM intensity, better of two orientations
GTGCAC_site9510 (dsDNA) DNA 1: TGTTTATTTATTTGTGTGCACTCAGATTATATTATA DNA 2: TATAATATAATCTGAGTGCACACAAATAAATAAACA | 10.1 ln median PBM intensity, better of two orientations | 11.3 ln median PBM intensity, better of two orientations
GTGCAC_site10773 (dsDNA) DNA 1: TATATATATATAATTGTGCACATAATTTTAAACCAA DNA 2: TTGGTTTAAAATTATGTGCACAATTATATATATATA | 9.89 ln median PBM intensity, better of two orientations | 11.1 ln median PBM intensity, better of two orientations
GTGCAC_site9776 (dsDNA) DNA 1: TTTATATATTTTGTCGTGCACATTTGGAAAATTACA DNA 2: TGTAATTTTCCAAATGTGCACGACAAAATATATAAA | 9.81 ln median PBM intensity, better of two orientations | 8.92 ln median PBM intensity, better of two orientations
GTGCAC_site10117 (dsDNA) DNA 1: AATAACTATATATGTGTGCACAAAAATTTGACATAA DNA 2: TTATGTCAAATTTTTGTGCACACATATATAGTTATT | 9.72 ln median PBM intensity, better of two orientations | 11.2 ln median PBM intensity, better of two orientations
GTGCAC_site9953 (dsDNA) DNA 1: ATATATCTTTATATAGTGCATTAAATATGTTGTAAT DNA 2: ATTACAACATATTTAATGCACTATATAAAGATATAT | 8.47 ln median PBM intensity, better of two orientations | 8.99 ln median PBM intensity, better of two orientations
GTGCAC_site10686 (dsDNA) DNA 1: TATCCATTTCTTTATGTGCACATTAAATATATTTGT DNA 2: ACAAATATATTTAATGTGCACATAAAGAAATGGATA | 8.89 ln median PBM intensity, better of two orientations | 11.4 ln median PBM intensity, better of two orientations
GTGCAC_site10622 (dsDNA) DNA 1: TATTATTCAAAATTTGTGCACAAAATTAAAGGAACA DNA 2: TGTTCCTTTAATTTTGTGCACAAATTTTGAATAATA | 8.92 ln median PBM intensity, better of two orientations | 11.1 ln median PBM intensity, better of two orientations
GTGCAC_site10721 (dsDNA) DNA 1: ATATTATATCTAATCGTGCACAACTGTACATTTGTC DNA 2: GACAAATGTACAGTTGTGCACGATTAGATATAATAT | 9.08 ln median PBM intensity, better of two orientations | 9.73 ln median PBM intensity, better of two orientations
GTGCAC_site10129 (dsDNA) DNA 1: GCATATGTATATAATGTGCACATGGATTATATAAAA DNA 2: TTTTATATAATCCATGTGCACATTATATACATATGC | 9.12 ln median PBM intensity, better of two orientations | 11.2 ln median PBM intensity, better of two orientations
GTGCAC_site9562 (dsDNA) DNA 1: ACATTTAAATAATATGTGCACAGCTATATTTTCTTT DNA 2: AAAGAAAATATAGCTGTGCACATATTATTTAAATGT | 9.19 ln median PBM intensity, better of two orientations | 10.9 ln median PBM intensity, better of two orientations
GTGCAC_site9580 (dsDNA) DNA 1: ATTTTTATTTTTTTTGTGCACATTTTCATTTTCTAT DNA 2: ATAGAAAATGAAAATGTGCACAAAAAAAATAAAAAT | 9.53 ln median PBM intensity, better of two orientations | 11.3 ln median PBM intensity, better of two orientations
GTGCAC_site10155 (dsDNA) DNA 1: TTGATAAAATCACTGGTGCATGTAGATATATAATAT DNA 2: ATATTATATATCTACATGCACCAGTGATTTTATCAA | 9.7 ln median PBM intensity, better of two orientations | 9.06 ln median PBM intensity, better of two orientations
GTGCAC_negctrl_site348 (dsDNA) DNA 1: AAAATAAAAGAATAAAAATATGAAACTTTTTTAAAA DNA 2: TTTTAAAAAAGTTTCATATTTTTATTCTTTTATTTT | 6.41 ln median PBM intensity, better of two orientations | 5.89 ln median PBM intensity, better of two orientations
GTGCAC_negctrl_site533 (dsDNA) DNA 1: AAATTAATAAATATTTTTATAAATTATAATATTAAT DNA 2: ATTAATATTATAATTTATAAAAATATTTATTAATTT | 6.52 ln median PBM intensity, better of two orientations | 5.92 ln median PBM intensity, better of two orientations
GTGCAC_negctrl_site521 (dsDNA) DNA 1: AGTGGAATGTATGATTTTCATTCCTTAAAATTTTAA DNA 2: TTAAAATTTTAAGGAATGAAAATCATACATTCCACT | 6.55 ln median PBM intensity, better of two orientations | 5.94 ln median PBM intensity, better of two orientations
GTGCAC_negctrl_site310 (dsDNA) DNA 1: TTACTAAAAATTATTAATAAATAATAATTATAAATT DNA 2: AATTTATAATTATTATTTATTAATAATTTTTAGTAA | 6.58 ln median PBM intensity, better of two orientations | 5.75 ln median PBM intensity, better of two orientations
GTGCAC_negctrl_site636 (dsDNA) DNA 1: TTTTGTTGAAAAAAAAAAAAAAAATTAAATTAAATT DNA 2: AATTTAATTTAATTTTTTTTTTTTTTTTCAACAAAA | 6.63 ln median PBM intensity, better of two orientations | 5.87 ln median PBM intensity, better of two orientations
GTGCAC_negctrl_site266 (dsDNA) DNA 1: AATCAATATAAATAAAATTTTTAATTTTAACCCTAA DNA 2: TTAGGGTTAAAATTAAAAATTTTATTTATATTGATT | 6.64 ln median PBM intensity, better of two orientations | 6.24 ln median PBM intensity, better of two orientations
GTGCAC_negctrl_site402 (dsDNA) DNA 1: AAAAAAAAAATACAACAAAGTTAAATAAATAAATAA DNA 2: TTATTTATTTATTTAACTTTGTTGTATTTTTTTTTT | 6.65 ln median PBM intensity, better of two orientations | 6.34 ln median PBM intensity, better of two orientations

Binder | binding signal (SIP2 D1) | binding signal (HDP1 homeodomain-like)
GTGCAC_negctrl_site428 (dsDNA) DNA 1: AATATATGTATATATTTTTTTTTTTCCCTTACAAAT DNA 2: ATTTGTAAGGGAAAAAAAAAAATATATACATATATT | 6.66 ln median PBM intensity, better of two orientations | 6.17 ln median PBM intensity, better of two orientations
GTGCAC_negctrl_site503 (dsDNA) DNA 1: AAACAAAAGTAGAAGGTAGAGTATTTTATATTTAAA DNA 2: TTTAAATATAAAATACTCTACCTTCTACTTTTGTTT | 6.67 ln median PBM intensity, better of two orientations | 6.07 ln median PBM intensity, better of two orientations
GTGCAC_negctrl_site735 (dsDNA) DNA 1: AAAATTAATTATTACAAAAATGAAAAGACATATTTT DNA 2: AAAATATGTCTTTTCATTTTTGTAATAATTAATTTT | 6.68 ln median PBM intensity, better of two orientations | 5.96 ln median PBM intensity, better of two orientations
GTGCAC_negctrl_site259 (dsDNA) DNA 1: TATTTACAACAAATTTAATTATTTTTAACTTATAAA DNA 2: TTTATAAGTTAAAAATAATTAAATTTGTTGTAAATA | 6.7 ln median PBM intensity, better of two orientations | 6.18 ln median PBM intensity, better of two orientations
GTGCAC_negctrl_site626 (dsDNA) DNA 1: AAAATATAAATATATTTGAACATGGATCAAATGTAA DNA 2: TTACATTTGATCCATGTTCAAATATATTTATATTTT | 6.71 ln median PBM intensity, better of two orientations | 6.08 ln median PBM intensity, better of two orientations
GTGCAC_negctrl_site36 (dsDNA) DNA 1: TTATGTGATAAAAAAAAAATACAACAAAGTTAAATA DNA 2: TATTTAACTTTGTTGTATTTTTTTTTTATCACATAA | 6.76 ln median PBM intensity, better of two orientations | 6.32 ln median PBM intensity, better of two orientations
GTGCAC_negctrl_site655 (dsDNA) DNA 1: TCTTTTAACAAATAATAAGCTAATTTATATTATTAT DNA 2: ATAATAATATAAATTAGCTTATTATTTGTTAAAAGA |  | 6.28 ln median PBM intensity, better of two orientations
GTGCAC_negctrl_site354 (dsDNA) DNA 1: ATAAATTGAAGTAAATTTGACCTTTTTTTTTTTTTT DNA 2: AAAAAAAAAAAAAAGGTCAAATTTACTTCAATTTAT |  | 6.29 ln median PBM intensity, better of two orientations
GTGCAC_negctrl_site532 (dsDNA) DNA 1: AATAATTTTTAAATATAAACATTTTTTTTTTTTTTT DNA 2: AAAAAAAAAAAAAAATGTTTATATTTAAAAATTATT |  | 6.29 ln median PBM intensity, better of two orientations
GTGCAC_negctrl_site448 (dsDNA) DNA 1: TCTTTTTAAATTACTATAATACATTCATAAATTATA DNA 2: TATAATTTATGAATGTATTATAGTAATTTAAAAAGA |  | 6.3 ln median PBM intensity, better of two orientations
GTGCAC_negctrl_site362 (dsDNA) DNA 1: TATTATATCTTATATGTATATTCCCACAAATTATAT DNA 2: ATATAATTTGTGGGAATATACATATAAGATATAATA |  | 6.31 ln median PBM intensity, better of two orientations
GTGCAC_negctrl_site358 (dsDNA) DNA 1: TACTGTATTATAATTATGATTGACGAAATTAAAAAT DNA 2: ATTTTTAATTTCGTCAATCATAATTATAATACAGTA |  | 6.33 ln median PBM intensity, better of two orientations
GTGCAC_negctrl_site486 (dsDNA) DNA 1: TATTTATTATGATACTCATATTATTCTATGATTAAA DNA 2: TTTAATCATAGAATAATATGAGTATCATAATAAATA |  | 6.33 ln median PBM intensity, better of two orientations
GTGCAC_negctrl_site213 (dsDNA) DNA 1: TTTAATCAATGATTTAATGAAAAAAGCAAAAAAAAA DNA 2: TTTTTTTTTGCTTTTTTCATTAAATCATTGATTAAA |  | 6.34 ln median PBM intensity, better of two orientations
GTGCAC_negctrl_site275 (dsDNA) DNA 1: ATATTTTATCATGTTTAATATTTATGTGGACATAAA DNA 2: TTTATGTCCACATAAATATTAAACATGATAAAATAT |  | 6.34 ln median PBM intensity, better of two orientations
GTGCAC_negctrl_site640 (dsDNA) DNA 1: AGAAATATGTTGAAGCATTTATAATGTAGATATAAG DNA 2: CTTATATCTACATTATAAATGCTTCAACATATTTCT |  | 6.35 ln median PBM intensity, better of two orientations
GTGCAC_negctrl_site551 (dsDNA) DNA 1: AAAAGGAATATAATCATTCAAAAATATAATATATAT DNA 2: ATATATATTATATTTTTGAATGATTATATTCCTTTT |  | 6.36 ln median PBM intensity, better of two orientations
GTGCAC_negctrl_site507 (dsDNA) DNA 1: ATGTTGTTCATAAATATATTATTTTTAAATGTACAA DNA 2: TTGTACATTTAAAAATAATATATTTATGAACAACAT |  | 6.37 ln median PBM intensity, better of two orientations
GTGCAC_negctrl_site465 (dsDNA) DNA 1: AAAAAATGTAAATATAAACAACCAAAGGGGGTATAC DNA 2: GTATACCCCCTTTGGTTGTTTATATTTACATTTTTT |  | 6.37 ln median PBM intensity, better of two orientations

From article PMC11417369, “DNA sequence and chromatin differentiate sequence-specific transcription factor binding in the human malaria parasite Plasmodium falciparum”
